From patent publication US7256013B2, “Kit for determining the acetylation level of a peptide based on sensitivity of the peptide to peptidase” (Cyclex Co., Ltd., priority 1999, dated 2007)
The star is where a group is joined. AMC = Cc1cc(=O)oc2cc(N*)ccc12; Boc = CC(C)(C)OC(=O)*

What was measured:
histone deacetylase = test: Histone deacetylase activity assay with Boc-Val-Leu-(Ac)Lys-MCA and lysylendopeptidase (fluorescence); type: biochemical, human; settings: at a concentration of about 200 nM; FIG. 5
Protocol: MCF7 cells were washed with PBS, and then centrifuged. Precipitated cells were suspended in 4 ml lysis buffer and were left standing 15 minutes on ice. 5 ml lysate buffer was obtained by washing the centrifuge tube with 1 ml lysis buffer. The lysate was loaded on 15 ml sucrose cushion buffer in a centrifuge tube for type-07 rotor. Then, The tubes were centrifuged at 1300 g for 20 minutes and precipitated cells were recovered with 1.5 ml of the lysis buffer. After washing the cells, the cells were suspended in 700 μl low-salt buffer. The cells were sonicated for 30 seconds, and then allowed to stand still on ice for 30 minutes. The lysate was centrifuged at 100,000 g for 40 minutes, and the supernatant was collected to recover crude histone deacetylase. The pooled crude histone deacetylase was placed in a 1.5-ml tube, and was dialyzed overnight against a solution containing 50% glycerol, 150 mM NaCl, and 20 mM Tris (pH 7.5). The dialysate was substituted 3 times with fresh buffer. […]
1 μl of DMSO solution containing 10 mM substrate peptide, Boc-Val-Leu-(Ac)Lys-MCA, was added to 64 μl HDAC reaction buffer (25 mM Tris-HCl pH 7.5) for each assay. […] The fluorescence intensity was measured every 150 seconds with fluorescence microplate reader. The fluorescence intensity was measured using Wallac 1420 ARVOsx Multi Label Counter (Amersham-Pharmacia Biotech). […]

recombinant SIRT1 = target: T1, recombinant SIRT1 (Homo sapiens, UniProt Q96EB6); test: SIRT1 deacetylase activity assay (FMAP) with Nma-VGAK(Ac)RHSK(Dnp)-NH2 and lysylendopeptidase; type: biochemical; settings: serial dilutions of NAD added to the reaction solution; FIG. 7
T1 construct: the first amino acid residue to the 747th residue of SIRT1 (full length) was amplified using this primer set; made in house; host or cells: E. coli BL21 Gold (DE3), vector pGEX-4T-1
T1 sequence (Q96EB6 1-747): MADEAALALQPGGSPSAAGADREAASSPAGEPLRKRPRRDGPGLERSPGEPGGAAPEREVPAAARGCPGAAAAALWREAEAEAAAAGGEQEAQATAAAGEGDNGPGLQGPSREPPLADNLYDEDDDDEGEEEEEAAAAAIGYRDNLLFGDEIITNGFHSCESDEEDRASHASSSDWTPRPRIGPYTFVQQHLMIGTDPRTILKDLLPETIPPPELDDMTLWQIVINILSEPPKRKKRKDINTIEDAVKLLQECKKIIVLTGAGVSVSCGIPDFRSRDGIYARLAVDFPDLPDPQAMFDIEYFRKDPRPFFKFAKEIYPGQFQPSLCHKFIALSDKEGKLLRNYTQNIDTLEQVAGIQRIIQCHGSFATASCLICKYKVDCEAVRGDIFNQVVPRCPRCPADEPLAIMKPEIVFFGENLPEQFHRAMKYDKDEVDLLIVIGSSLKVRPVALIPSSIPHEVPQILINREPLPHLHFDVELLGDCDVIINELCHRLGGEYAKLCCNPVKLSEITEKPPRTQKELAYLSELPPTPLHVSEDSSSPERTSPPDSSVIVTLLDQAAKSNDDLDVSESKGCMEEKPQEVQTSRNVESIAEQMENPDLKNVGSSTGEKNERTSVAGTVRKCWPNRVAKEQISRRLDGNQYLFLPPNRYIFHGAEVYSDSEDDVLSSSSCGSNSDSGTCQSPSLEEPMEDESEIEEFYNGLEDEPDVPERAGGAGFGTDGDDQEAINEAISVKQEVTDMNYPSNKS
Protocol: Peptide for the SIRT1-activity assay: Nma-VGAK(Ac)RHSK(Dnp)-NH2
5 μl of 0.005 U/μl lysylendopeptidase (LEP) was combined with 90 μl of an enzyme reaction buffer (50 mM Tris-HCl (pH 8.8), 4 mM MgCl2, 0.2 mM DTT) and 1 μl of 10 mM peptide solution for SIRT1-activity assay. 2 μl of 5 mM NAD and 2 μl of each of serial dilutions of a recombinant SIRT1 solution, or alternatively 2 μl of each of serial dilutions of an NAD solution and 2 μl of a solution containing 1 mg/ml recombinant SIRT1 were added at the same time to the mixture. The enzyme reaction and fluorescence assay were performed at 30° C. using 384-well plates for fluorescence assay.
The fluorescence intensity was measured at excitation wavelength 355 nm/fluorescence wavelength 460 nm by using a Wallac 1420 ARVO HTS Multi Label Counter. The measurement was repeated at about 2- to 3-minute intervals for 50 minutes.
It has been reported that the presence of NAD is essential for the deacetylase activity of SIRT1. In order to assess whether the NAD-dependency of SIRT1 activity can be detected using the assay method, an NAD solution was serially diluted and each dilution was added to the reaction solution, and then observation was made for the changes in the fluorescence intensity.

plasmin = plasmin (Homo sapiens, UniProt P00747); test: Cleavage of fluorescence-labeled substrate peptide by plasmin; type: biochemical; settings: 0.001U plasmin; FIG. 2
Protocol: (§1) 1 μl of DMSO solution containing 10 mM substrate peptide, Boc-Val-Leu-(Ac)Lys-MCA, was added to 64 μl HDAC reaction buffer (25 mM Tris-HCl pH 7.5) for each assay. The mixture was poured into the wells of a microplate for fluorometry and was incubated at 30° C. Then, 10 μl of histone deacetylase solution was added to each well and the plate was subjected for deacetylation at 30° C. for 60 minutes. After the reaction, 5 μl of peptidase solution that was diluted with 25 mM Tris-HCl (pH 7.5) to an optimal concentration and 20 μl 5× protease reaction buffer were added to each well. The fluorescence intensity was measured every 150 seconds with fluorescence microplate reader. The fluorescence intensity was measured using Wallac 1420 ARVOsx Multi Label Counter (Amersham-Pharmacia Biotech). The composition of the reaction buffer was as follows.
(§2) 5×10^−6 AU lysylendopeptidase or 0.001U plasmin was added to Boc-Val-Leu-Lys-MCA or Boc-Val-Leu-(Ac)Lys-MCA. The Figures show the fluorescence intensity measured at an interval of about 150-seconds.

lysylendopeptidase = lysylendopeptidase (Achromobacter lyticus, UniProt P15636); test: Cleavage of fluorescence-labeled substrate peptide by lysylendopeptidase; type: biochemical; settings: 5×10^−6 AU lysylendopeptidase; FIG. 1
Protocol: as §1, §2

lysylendopeptidase, sequence (P15636 206-473 limits assumed, species assumed): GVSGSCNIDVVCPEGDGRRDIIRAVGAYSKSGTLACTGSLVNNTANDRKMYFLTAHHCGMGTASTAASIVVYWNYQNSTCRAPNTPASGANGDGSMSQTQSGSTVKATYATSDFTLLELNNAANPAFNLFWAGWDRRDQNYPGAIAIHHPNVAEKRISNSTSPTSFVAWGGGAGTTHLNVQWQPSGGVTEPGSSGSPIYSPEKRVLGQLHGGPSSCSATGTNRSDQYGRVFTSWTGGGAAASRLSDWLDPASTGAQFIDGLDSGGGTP
plasmin, sequence (P00747 581-810 limits assumed, species assumed): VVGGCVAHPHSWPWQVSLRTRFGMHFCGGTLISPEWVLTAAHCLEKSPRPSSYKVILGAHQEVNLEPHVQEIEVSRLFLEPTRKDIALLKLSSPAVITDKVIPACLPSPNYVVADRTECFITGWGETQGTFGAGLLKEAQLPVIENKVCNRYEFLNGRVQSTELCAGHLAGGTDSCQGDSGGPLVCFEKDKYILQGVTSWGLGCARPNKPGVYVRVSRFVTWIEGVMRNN
plasmin, sequence (P00747 97-580 partner limits assumed, species assumed): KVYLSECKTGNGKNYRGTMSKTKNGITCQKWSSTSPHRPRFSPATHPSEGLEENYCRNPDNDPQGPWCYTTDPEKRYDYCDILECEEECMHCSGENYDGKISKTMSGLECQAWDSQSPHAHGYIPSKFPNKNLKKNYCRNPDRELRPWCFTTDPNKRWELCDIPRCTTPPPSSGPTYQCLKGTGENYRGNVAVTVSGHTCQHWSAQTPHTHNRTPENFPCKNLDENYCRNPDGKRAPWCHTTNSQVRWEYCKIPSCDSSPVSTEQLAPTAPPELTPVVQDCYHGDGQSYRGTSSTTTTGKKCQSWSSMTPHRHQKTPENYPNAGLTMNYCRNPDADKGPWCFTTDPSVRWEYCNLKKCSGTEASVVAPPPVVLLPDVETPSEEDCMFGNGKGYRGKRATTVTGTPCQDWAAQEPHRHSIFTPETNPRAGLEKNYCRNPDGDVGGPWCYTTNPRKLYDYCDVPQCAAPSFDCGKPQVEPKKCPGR

Molecule	effect on the deacetylation reaction (inhibition) (histone deacetylase)	fluorescence intensity (deacetylation activity of recombinant SIRT1) (recombinant SIRT1)	peptide cleavage by plasmin (plasmin)	peptide cleavage by lysylendopeptidase (lysylendopeptidase)
CC(/C=C/C(=O)NO)=C\[C@@H](C)C(=O)c1ccc(N(C)C)cc1 [Trichostatin A]	almost completely inhibited	–	–	–
NC(=O)c1ccc[n+]([C@@H]2O[C@H](COP(=O)([O-])OP(=O)(O)OC[C@H]3O[C@@H](n4cnc5c(N)ncnc54)[C@H](O)[C@@H]3O)[C@@H](O)[C@H]2O)c1 [NAD]	–	increased in an NAD concentration-dependent fashion	–	–
Boc-Val-Leu-(Ac)Lys-MCA (VLK; HELM PEPTIDE1{[CC(C)(C)OC(=O)[*:2]].V.L.K.[Cc1cc(=O)oc2cc(N[*:1])ccc12]}|PEPTIDE2{[ac]}$PEPTIDE1,PEPTIDE2,4:R3-1:R2$$$V2.0; SMILES CC(=O)NCCCC[C@H](NC(=O)[C@H](CC(C)C)NC(=O)[C@@H](NC(=O)OC(C)(C)C)C(C)C)C(=O)Nc1ccc2c(C)cc(=O)oc2c1) [fluorescence labeled substrate peptide with an acetylated lysine residue]	–	–	did not cleave	did not cleave
Boc-Val-Leu-Lys-MCA (Boc-Val-Leu-Lys-{AMC}) [fluorescence labeled substrate peptide, non-acetylated]	–	–	digested	digested
